Data from article PMC7439320 (Science Advances, 2020).
“And” between values parts separate entries of the source, which are not always exact repeats. Equal entries are not always repeated.

Target: the molecule itself
Test: cryo-EM structure

Protein | stoichiometry N
Oryzias latipes CALHM1 truncated at the C terminus (OlCALHM1EM) (domain or fragment) MDKFRMMFQFLQSNQESFMNGICGIMALASAQMYSSFEFSCPCMPEYNYTYGIGLLIIPPIWFFLLGFVLNNNVSVLAEEWKRPTGRRTKDPSVLRYMLCSITQRSLIAPAVWVSVTLMDGKSFLCAFSINLDIEKFGNASLVIGMTETEKLKFLARIPCKDLFEDNEVRVAATRYIKCISQACGWMFLLMMTFTAFLIRAIRPCFTQAAFLKTKYWSHYIDIERKMFDETCKEHAKSFAKVCIHQYFENISGEMQNFHRHQSKDTSDAEEEEKQRSDEDKLLGIKAQEDMNKVL | 8
Homo sapiens calcium homeostasis modulator 2 (HsCALHM2) (natural protein) MAALIAENFRFLSLFFKSKDVMIFNGLVALGTVGSQELFSVVAFHCPCSPARNYLYGLAAIGVPALVLFIIGIILNNHTWNLVAECQHRRTKNCSAAPTFLLLSSILGRAAVAPVTWSVISLLRGEAYVCALSEFVDPSSLTAREEHFPSAHATEILARFPCKENPDNLSDFREEVSRRLRYESQLFGWLLIGVVAILVFLTKCLKHYCSPLSYRQEAYWAQYRANEDQLFQRTAEVHSRVLAANNVRRFFGFVALNKDDEELIANFPVEGTQPRPQWNAITGVYLYRENQGLPLYSRLHKWAQGLAGNGAAPDNVEMALLPS | 11
Caenorhabditis elegans calcium homeostasis modulator protein CLHM-1 (CeCLHM-1) (natural protein) MTTSINSVVTVFQNVFTNHGSTLLNGILIATTVGGQSLVRKLTFSCPCAYPLNIYHSLVFMFGPTAALLLIGITVNSTTWKLAHGFFFRVRDTRHSWKTTCVSWIEVLIQSSVAPIAWLFVVFLDGGYYRCYRSHEFCLISDAILCKNSTILNSYASTSSFNKISDNGKYCPPCICVPNPTDASYLEAESQIYAWGLLLFSGVAAFLVITCNRMCDKYTLVQRQYVETYKNVETQKFDAVAKEHASQLAEHNARAFFGQKDWTKRDWDWVSGIPEVNNPLFARLRLIAAEKTQQTMYTPLQLWNDNKGYRIPQPDLQLTQIIVDETKED | 9
Chimeric channel of the TMD from OlCALHM1 and the CTD from HsCALHM2 (OlCALHM1c) (other) MDKFRMMFQFLQSNQESFMNGICGIMALASAQMYSSFEFSCPCMPEYNYTYGIGLLIIPPIWFFLLGFVLNNNVSVLAEEWKRPTGRRTKDPSVLRYMLCSITQRSLIAPAVWVSVTLMDGKSFLCAFSINLDIEKFGNASLVIGMTETEKLKFLARIPCKDLFEDNEVRVAATRYIKCISQACGWMFLLMMTFTAFLIRAIRPCFTQASYRQEAYWAQYRANEDQLFQRTAEVHSRVLAANNVRRFFGFVALNKDDEELIANFPVEGTQPRPQWNAITGVYLYRENQGLPLYSRLHKWAQGLAGNGAAPDNVEMALLPS | 8 and 9
